Assay results as given in patent US20220273789A1.
Like-named read-outs stand apart in the source and are kept apart here.

Legend:
[1] = biological target: human IgG (human); experiment: BLI Octet, construct on Ni-NTA sensor, hIgG in solution
[2] = biological target: human IgG (human); experiment: BLI (Octet), gEgI on Ni-NTA sensor, hIgG in solution
[3] = biological target: human IgG (human); experiment: as above; remark: listed apart in the source
[4] = biological target: human IgG (human); experiment: BLI (Octet), His-tagged gEgI immobilised on Ni-NTA sensor, response to human IgG

Substance “HSV2-gE_H245G R320D_gI (from UniProt P89475 21-416; P06764 21-256) (receptor)” has a Kd [1] of 14200 nM, a Response (nm) [1] of 0.0927 nm and a koff [1] of 0.00667 s⁻¹. The kon [1] was 469 M⁻¹ s⁻¹, the Kd [2] was 14200 nM and the Response [2] was 0.0927 nm.

For “HSV2-gE_H245G R320G_gI (from UniProt P89475 21-416; P06764 21-256) (receptor)”, the Kd [1] was 777 nM, the Response (nm) [1] was 0.225 nm and the koff [1] was 0.00407 s⁻¹. It also gave a kon [1] of 5240 M⁻¹ s⁻¹, a Kd [2] of 777 nM and a Response [2] of 0.225 nm.

“HSV2-gE_H245S R320D_gI (from UniProt P89475 21-416; P06764 21-256) (receptor)” was tested, and the Kd [1] was 1740 nM, the Response (nm) [1] was 0.121 nm and the koff [1] was 0.00468 s⁻¹. It also gave a kon [1] of 2690 M⁻¹ s⁻¹, a Kd [2] of 1740 nM and a Response [2] of 0.121 nm.

“HSV2-gE_H245S R320G_gI (from UniProt P89475 21-416; P06764 21-256) (receptor)” was tested, and the Kd [1] was 745 nM, the Response (nm) [1] was 0.196 nm and the koff [1] was 0.0039 s⁻¹. It also gave a kon [1] of 5240 M⁻¹ s⁻¹, a Kd [2] of 745 nM and a Response [2] of 0.196 nm.

Work on “HSV2-gE_H245S R320T_gI (from UniProt P89475 21-416; P06764 21-256) (receptor)” yielded a Kd [1] of 718 nM, a Response (nm) [1] of 0.205 nm and a koff [1] of 0.00503 s⁻¹. For the same substance, the kon [1] was 7000 M⁻¹ s⁻¹, the Kd [2] was 718 nM and the Response [2] was 0.205 nm.

“HSV2-gE_P318I_gI (from UniProt P89475 21-416; P06764 21-256) (receptor)” was tested, and the Kd [1] was 4440 nM, the Response (nm) [1] was 0.163 nm and the koff [1] was 0.00752 s⁻¹. It also gave a kon [1] of 1690 M⁻¹ s⁻¹, a Kd [2] of 4440 nM and a Response [2] of 0.163 nm.

With “HSV2-gE_P318R S338G_gI (from UniProt P89475 21-416; P06764 21-256) (receptor)” the Kd [2] was 0.001 nM, the Kd [3] was under 0.001 nM and the Response [3] was 0.177 nm. The koff [3] was under 1e-07 s⁻¹ and the kon [3] was 8690 M⁻¹ s⁻¹.

Work on “HSV2-gE_R320E_gI (from UniProt P89475 21-416; P06764 21-256) (receptor)” yielded a Kd [1] of 4950 nM, a Response (nm) [1] of 0.223 nm and a koff [1] of 0.00455 s⁻¹. For the same substance, the kon [1] was 919 M⁻¹ s⁻¹, the Kd [2] was 4950 nM and the Response [2] was 0.223 nm.

In the case of “HSV2-gE_V340D_gI (from UniProt P89475 21-416; P06764 21-256) (receptor)”, the Kd [1] is reported as under 0.001 nM, the Response (nm) [1] is reported as 0.115 nm and the koff [1] is reported as under 1e-07 s⁻¹. It also gave a kon [1] of 5330 M⁻¹ s⁻¹, a Kd [2] of 0.001 nM and a Response [2] of 0.115 nm.

Work on “HSV2-gE_V340F_gI (from UniProt P89475 21-416; P06764 21-256) (receptor)” yielded a Kd [1] of under 0.001 nM, a Response (nm) [1] of 0.114 nm and a koff [1] of under 1e-07 s⁻¹. It also gave a kon [1] of 3140 M⁻¹ s⁻¹, a Kd [2] of 0.001 nM and a Response [2] of 0.114 nm.

“HSV2-gE_V340W_gI (from UniProt P89475 21-416; P06764 21-256) (receptor)” was tested, and the Kd [1] was under 0.001 nM, the Response (nm) [1] was 0.0751 nm and the koff [1] was under 1e-07 s⁻¹. The kon [1] was 3520 M⁻¹ s⁻¹, the Kd [2] was 0.001 nM and the Response [2] was 0.0751 nm.

“PN90 (HSV2-gE_gI) (from UniProt P89475 21-416; P06764 21-256) (receptor)” was tested, and the hIgG binding response [4] was 0.623 nm.

“PN91 (HSV2-gE_P317R-P319D_gI) (from UniProt P89475 21-416; P06764 21-256) (receptor)” showed a hIgG binding response [4] of 0.0658 nm.

“PN92 (HSV2-gE_P317R-R320D_gI) (from UniProt P89475 21-416; P06764 21-256) (receptor)” gave a hIgG binding response [4] of 0.056 nm.

Work on “PN93 (HSV2-gE_P319D-R320D_gI) (from UniProt P89475 21-416; P06764 21-256) (receptor)” yielded a hIgG binding response [4] of 0.0658 nm.

For “PN94 (HSV2-gE_Δ319-320_gI) (from UniProt P89475 21-416; P06764 21-256) (receptor)”, the hIgG binding response [4] was 0.115 nm.

“PN95 (HSV2-gE_P317G-P318G_Δ319-320_gI) (from UniProt P89475 21-416; P06764 21-256) (receptor)” showed a hIgG binding response [4] of 0.0748 nm.

“PN96 (HSV2-gE_P318E_Δ319-320_gI) (from UniProt P89475 21-416; P06764 21-256) (receptor)” showed a hIgG binding response [4] of 0.0619 nm.
